Tested on: Bacillus subtilis DB104 (SP-AmyQ fusion secretion)
Assay: AmyQ secretion efficiency, weighted average sort bin (1 = best secretion, 10 = worst) (bin number (weighted average, 1-10)); higher = lower secretion efficiency
Summary of the method: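 In this assay, the secretion score is defined as the average bin number weighted by read frequency, normalised to beads per bin, with low-abundance sequences not counted. B. subtilis DB104 cells expressing mature AmyQ behind designed signal peptides (amyE-integrated) were enclosed with fluorescein-starch in ~65 nL alginate beads at about 0.3 cells per bead. Beads grew about 13 h at room temperature, were stained with nile red, and occupied beads went into 10 equally populated green/red fluorescence ratio bins by large-particle flow cytometry, whose amplicons were Illumina-sequenced.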

Sequence	AmyQ secretion efficiency
MKWMCSICCAAVLLAGGAAQSEAV	4.64
MKWMCSICCAAVLLAGGAAQTEAV	3.03
MKWMCSICCAAVLLAGGAAQVEAV	2.92
MKWMCSICCAAVLLAGGAAQYEAV	7.08
MKWMCSICCAAVLLAGGACQAEAV	3.36
MKWMCSICCAAVLLAGGADQAEAV	2.46
MKWMCSICCAAVLLAGGAFQAEAV	4.41
MKWMCSICCAAVLLAGGAGQAEAV	3.36
MKWMCSICCAAVLLAGGAHQAEAV	2.89
MKWMCSICCAAVLLAGGAIQAEAV	2.58
MKWMCSICCAAVLLAGGAKQAEAV	2.68
MKWMCSICCAAVLLAGGALQAEAV	2.66
MKWMCSICCAAVLLAGGAMQAEAV	3.69
MKWMCSICCAAVLLAGGANQAEAV	2.83
MKWMCSICCAAVLLAGGAPQAEAV	2.41
MKWMCSICCAAVLLAGGAPTFAQAEAV	3.68
MKWMCSICCAAVLLAGGAQAEAV	3.54
MKWMCSICCAAVLLAGGAQQAEAV	2.93
MKWMCSICCAAVLLAGGARQAEAV	2.15
MKWMCSICCAAVLLAGGASFFGTFGPGTTAQAEAV	4.06

Sequence	AmyQ secretion efficiency
MKWMCSICCAAVLLAGGASQAEAV	3.1
MKWMCSICCAAVLLAGGATQAEAV	2.86
MKWMCSICCAAVLLAGGAVQAEAV	2.89
MKWMCSICCAAVLLAGGAWQAEAV	3.41
MKWMCSICCAAVLLAGGTAQAEAV	2.47
MKWMCSICCAAVLLAGIAIAQAEAV	6.86
MKWMCSICCAAVLLAGLGAAQAEAV	3.8
MKWMCSICCAAVLLAGRRRRRKAQAEAV	6.72
MKWMCSICCAAVLLAGTVFLLGAAQAEAV	3.59
MKWMCSTCCAAVLLAGGAAQAEAV	2.63
MKWMCTKCCTYQQLAGGAAQAEAV	7.81
MKWMTNCSICCAAVLLAGGAAQAEAV	3.49
MKWYCSICCAAVLLAGGAAQAEAV	2.63
MKWYRRRQRCSICCAAVLLAGGAAQAEAV	4.99
MKYCQKSISRFLVSLIIGTFVISVPFMANAQSD	3.17
MLCKKMLLFSAIASFPVSAQAKDQ	4.84
MLCKRKRLFSAIASFPVSAQAKDQ	7.61
MLCKRRKRKSAIASFPVSAQAKDQ	6.78
MLCVMMLLFMAIASFPVSAQAKDQ	5.48
MLCVMMLLFSAIAAFTVTAQAKDQ	6.83

Sequence	AmyQ secretion efficiency
MLCVMMLLFSAIAEDEVSAQAKDQ	6.57
MLCVMMLLFSAIAEEEDEEAQAKDQ	7.25
MLCVMMLLFSAIAKKRRKRAQAKDQ	7.12
MLCVMMLLFSAIAKRRVSAQAKDQ	7.83
MLCVMMLLFSAIALFLVASFPVSAQAKDQ	7.1
MLCVMMLLFSAIAPDPSGAQAKDQ	4.72
MLCVMMLLFSAIASAQAKDQ	6.18
MLCVMMLLFSAIASFPVSAQAAKK	6.38
MLCVMMLLFSAIASFPVSAQAAPQ	4.18
MLCVMMLLFSAIASFPVSAQAASR	6.18
MLCVMMLLFSAIASFPVSAQAKKK	7.53
MLCVMMLLFSAIASFPVSAQCKDQ	6.94
MLCVMMLLFSAIASFPVSAQDKDQ	6.19
MLCVMMLLFSAIASFPVSAQEKDQ	5.69
MLCVMMLLFSAIASFPVSAQHKDQ	5.96
MLCVMMLLFSAIASFPVSAQIKDQ	5.57
MLCVMMLLFSAIASFPVSAQLKDQ	6.33
MLCVMMLLFSAIASFPVSAQMKDQ	6.09

Source: the supplement of paper PMC9942255
